The target of the assay is HIV gp120 (HIV-1). As to the kind of experiment: SPR. In general terms: Surface plasmon resonance follows binding to a sensor surface in real time, without labels.

Consider “Griffithsin (from UniProt P84801 1-121) (natural protein)”, for which the Kd – broadly, the concentration at which binding is half-saturated – was 0.798 nM; the koff (commonly the rate constant with which the complex falls apart) was 0.00175 s⁻¹; the kon (as a rule, the rate constant with which the complex forms) was found to be 2.19e+06 M⁻¹ s⁻¹.

(Values after publication PMC4649164.)
